Two substances from US20200040083A1 can be followed below.

The test has as its target IL-2Rβ (R&D Systems, Minneapolis, Minn.) (UniProt P14784). The test can be described thus: Octet (BLI), AHC capture. The following applies: Fc fusion.

Values joined by “and” are separate entries in the source; they are usually repeats but may differ in a detail not shown here. Equal entries are not always repeated.

Chain of IL-2Rβ (R&D Systems, Minneapolis, Minn.) (P14784 27-240): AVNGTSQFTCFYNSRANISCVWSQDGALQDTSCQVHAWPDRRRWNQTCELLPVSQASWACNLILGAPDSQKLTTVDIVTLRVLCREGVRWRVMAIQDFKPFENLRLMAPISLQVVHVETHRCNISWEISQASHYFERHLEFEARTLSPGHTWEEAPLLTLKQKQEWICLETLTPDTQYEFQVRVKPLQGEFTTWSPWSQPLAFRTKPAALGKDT

Turning to “XENP21479 (from UniProt P0DOX5 218-449; P40933 49-162)”, the Kd is 3.06 nM and 3 nM.

On to XENP21478 (from UniProt P0DOX5 218-449), for which the Kd is 6.76 nM and 3 nM.
